Measurements published in patent US20110124571A1 (INSTITUT PASTEUR, published 2011).

Target: Recombinant human NEP (neutral endopeptidase, EC 3.4.24.11), devoid of its N-terminal cytosol and … (human, UniProt P08473 52-750)
Experiment: cell-based or functional assay

Recombinant human NEP (neutral endopeptidase, EC 3.4.24.11), devoid of its N-terminal cytosol and …, sequence (P08473 52-750): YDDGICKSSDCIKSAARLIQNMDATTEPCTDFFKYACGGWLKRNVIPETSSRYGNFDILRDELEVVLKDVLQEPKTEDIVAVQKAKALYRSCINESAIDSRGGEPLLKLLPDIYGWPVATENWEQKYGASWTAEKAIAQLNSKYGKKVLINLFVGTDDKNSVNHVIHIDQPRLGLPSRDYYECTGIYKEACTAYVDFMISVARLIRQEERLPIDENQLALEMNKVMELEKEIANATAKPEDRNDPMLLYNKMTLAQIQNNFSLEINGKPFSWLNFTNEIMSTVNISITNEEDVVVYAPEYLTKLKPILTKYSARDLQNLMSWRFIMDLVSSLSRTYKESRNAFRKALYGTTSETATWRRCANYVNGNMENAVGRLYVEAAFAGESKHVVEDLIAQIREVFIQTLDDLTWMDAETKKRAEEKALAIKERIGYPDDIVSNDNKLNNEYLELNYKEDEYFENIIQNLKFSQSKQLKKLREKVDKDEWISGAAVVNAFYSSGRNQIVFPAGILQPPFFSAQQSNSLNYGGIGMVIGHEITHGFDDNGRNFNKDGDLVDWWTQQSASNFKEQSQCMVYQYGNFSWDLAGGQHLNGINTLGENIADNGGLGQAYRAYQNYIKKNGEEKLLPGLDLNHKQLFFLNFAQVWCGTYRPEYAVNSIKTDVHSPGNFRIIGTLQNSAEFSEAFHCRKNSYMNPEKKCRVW

IC50, inhibition of Abz-dR-G-L-EDDnp cleavage by rhNEP (endopeptidase activity): 40 µM
Binder: CQRFSR (spacer -HN-(CH2)6-CO- (amino-hexanoic-acid) between Cys and Gln) [NH2-C-(C6-polyethylene)QRFSR-COOH]
